What follows are substances tested against XLF (UniProt Q9H9Q4) (assay: NMR titration (2D lineshape, TITAN)). Conditions: NMR buffer (composition, salt and pH not in material); 800 MHz, 298 K stated for relaxation measurements; EMSA buffer not given.
Sequence of XLF (Q9H9Q4 whole entry): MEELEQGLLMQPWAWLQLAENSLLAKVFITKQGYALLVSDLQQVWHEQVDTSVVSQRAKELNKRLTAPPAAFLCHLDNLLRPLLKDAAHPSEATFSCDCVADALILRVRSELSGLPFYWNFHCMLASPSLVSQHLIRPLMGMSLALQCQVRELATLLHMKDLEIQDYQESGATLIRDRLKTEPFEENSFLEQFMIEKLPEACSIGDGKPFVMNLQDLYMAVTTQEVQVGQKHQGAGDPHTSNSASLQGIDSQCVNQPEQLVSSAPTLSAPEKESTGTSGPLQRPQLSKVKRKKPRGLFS
15mer DNA showed a Kd of 141 µM. 18mer DNA was tested, and the Kd was 33.7 µM. Substance 21mer DNA has a Kd of 16.2 µM.

Reference: doi:10.1101/2023.07.12.548668
